Measured values published in patent US20190343962A1 (GENAGON THERAPEUTICS, published 2019).

T1: native CLPTM1 in membrane-permeabilised O-876 cells (Homo sapiens (Human), UniProt O96005 2-669)
T1 construct: The protein was stained inside permeabilised cells, not only at the surface; also called native target; 0-876 cells expressing native CLPTM1
T1 sequence: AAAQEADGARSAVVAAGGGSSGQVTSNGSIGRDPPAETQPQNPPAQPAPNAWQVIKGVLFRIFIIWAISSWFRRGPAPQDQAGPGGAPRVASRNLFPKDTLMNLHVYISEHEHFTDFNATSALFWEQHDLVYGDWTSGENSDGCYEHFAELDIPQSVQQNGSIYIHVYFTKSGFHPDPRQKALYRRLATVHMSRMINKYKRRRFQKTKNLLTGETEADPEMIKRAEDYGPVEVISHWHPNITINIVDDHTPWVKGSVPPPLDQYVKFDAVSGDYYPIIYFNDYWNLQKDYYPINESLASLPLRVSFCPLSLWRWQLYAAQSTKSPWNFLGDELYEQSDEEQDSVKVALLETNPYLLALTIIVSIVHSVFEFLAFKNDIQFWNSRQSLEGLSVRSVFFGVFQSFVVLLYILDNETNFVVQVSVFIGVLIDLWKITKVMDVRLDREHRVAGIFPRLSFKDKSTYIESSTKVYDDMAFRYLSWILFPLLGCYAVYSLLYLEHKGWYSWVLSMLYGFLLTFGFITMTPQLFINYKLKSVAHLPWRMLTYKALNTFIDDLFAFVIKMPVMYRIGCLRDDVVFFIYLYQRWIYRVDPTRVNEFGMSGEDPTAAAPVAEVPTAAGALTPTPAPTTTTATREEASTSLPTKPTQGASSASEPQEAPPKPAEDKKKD


Key:
[1] = target: native CLPTM1 in membrane-permeabilised O-876 cells (Homo sapiens (Human)) (UniProt O96005); assay: flow cytometry on permeabilised O-876 cells; half-maximal binding
[2] = target: native CLPTM1 in membrane-permeabilised O-876 cells (Homo sapiens (Human)) (UniProt O96005); assay: flow cytometry on permeabilised O-876 cells, 10x dilution series; half-maximal binding
[3] = target: T1, native CLPTM1 in membrane-permeabilised …; assay: flow cytometry on permeabilised O-876 cells; half-maximal binding
Description: (§1) Affinity of antibodies was determined by finding the half-maximal binding on the native target in a flow cytometry assay. Since the native target is found inside most cells and rarely on the cell surface, the assay was performed using plasma membrane-permeabilised cells, an intra-cellular staining protocol. Using the native target is more applicable when evaluating and comparing various antibodies as it is the true antigen to be bound in a therapeutic setting in vivo. 0-876 cells were permeabilised with BD-fix and permeabilisation buffer (554722 BD-Biosciences). Antibody at various concentrations was incubated with cells for 30 minutes at +4° C., then washed twice with wash buffer (BD-Biosciences 554723). Secondary antibodies a-mouse IgG-PE (Molecular Probes) was used for mouse monoclonal antibodies according to manufacturer's instructions and a-rabbit-IgG-PE (Molecular Probes) for rabbit monoclonal antibody (Abcam ERP8800). Three washes followed and fluorescence intensity in cells was quantified by FACS CantoII in PBS with cells in 2% FCS buffer.
(§2) The assay was performed on O-876 cancer cell line.

[4] = target: T1, native CLPTM1 in membrane-permeabilised …; assay: flow cytometry on permeabilised O-876 cells, 10x dilution series; half-maximal binding
Description: CLPTM1 binding in permeabilised 0-876 cells expressing native CLPTM1 was measured in a 10× dilution series. […] The AbCam antibody also retained greater than 50% of its maximum binding at 0.1 μg/ml. The 59D04 antibody retained greater than 50% of its maximum binding at 1 μg/ml, whilst the Santa Cruz antibody had less than 50% of its maximum binding at this level.
as §1, with “Secondary antibodies a-mouse IgG-PE (Molecular Probes) was used for mouse monoclonal antibodies according to manufacturer's instructions and a-rabbit-IgG-PE (Molecular Probes) for rabbit monoclonal antibody (Abcam ERP8800).” left out

[5] = target: T1, native CLPTM1 in membrane-permeabilised …; assay: flow cytometry on permeabilised O-876 cells, antibody dilution series, PE-labelled secondary antibody
Description: as §1, §2

Molecule | EC50 [1] | EC50 [2] | EC50 [3] | EC50 [4] | Kd [5]
rabbit monoclonal anti-CLPTM1 antibody EPR8800 (RabMab, Abcam) | < 1 µg/mL | < 0.1 µg/mL | – | – | –
anti-CLPTM1 mouse monoclonal antibody 7G12 (antibody, IgG1, V domains shown, Mouse monoclonal, IgG1 heavy chain, kappa light chain; The printed VL ends in 'TKL.' and may be incomplete; also called CLPTM1 clone 7G12 (IgG1)) VH: QVQLQQSGTELVRPGTSVKVSCKASGYAFTNYLIEWVKQRPGQGLEWIGVINPGSGGTRYNEKFKGKATLTADKSSTTAHMQLSSLTSDDSAVYCARWGGNYSGYAMDYWGQGTSVTVSS VL: QIVLTQSPVIMSASPGEKVTITCSASSSVSYMHWFQQKPGTSPKLWIYSTSNLASGVPARFSGSGSGTSYSLTISRMEAEDAATYYCQQRSSYPPTFGAGTKL | – | – | < 1 µg/mL | < 0.1 µg/mL | < 1 nM
anti-CLPTM1 antibody 59D04 (format in the assay not stated) (antibody, V domains shown, Fully human antibody derived by phage display) VH: EVQLVESGGGVVQPGRSLRLSCAASGFTFSTYAMHWVRQAPGKGLEWVAVISYDGTNKYYADSVKGRFTIFRDNSKNTLYLQMNSLRAEDTAVYYCGSGSYWGQGTLVTVSS VL: QPVLTQPASVSGSPGQSITISCTGTSSDVGGYNYVSWYQQHPGKAPKLMIYEVTNRPSGVSDRFSGSKSGNTASLTISGLQAEDEADYYCSSYKSSNTVVFGGGTKVTVL | – | – | – | < 1 µg/mL | –
